B1: CPEB3 Ribozyme (parent)
chain: GGGGGCCACAGCAGAAGCGUUCACGUCGCGGCCCCUGUCAGAUUCUGGUGAAUCUGCGAAUUCUGCUGU

Variants of: B1
Assay: self-cleavage, relative activity (ratio to wild type); higher = more cleavage; co-transcriptional

Variant	self-cleavage
GGGGGCCAGAGCAGAAGCGUUCACAUCGCGGCCCCUGUCAGAUUCUGGUGAAUCUGCGAAUUCUGCUGU	0.216
GGGGGCCAGAGCAGAAGCGUUCACUUCGCGGCCCCUGUCAGAUUCUGGUGAAUCUGCGAAUUCUGCUGU	0.207
GGGGGCCAGAGCAGAAGCGUUCACCUCGCGGCCCCUGUCAGAUUCUGGUGAAUCUGCGAAUUCUGCUGU	0.108
GGGGGCCAGAGCAGAAGCGUUCACGUCGCGGCCCCUGUCAGAUUCUCGUGAAUCUGCGAAUUCUGCUGU	1.01
GGGGGCCAGAGCACAAGCGUUCACGUCGCGGCCCCUGUCAGAUUCUGGUGAAUCUGCGAAUUCUGCUGU	0.565
GGGGGCCAGAGCAUAAGCGUUCACGUCGCGGCCCCUGUCAGAUUCUGGUGAAUCUGCGAAUUCUGCUGU	0.756
GGGGGCCAGAGCAGAAGCGUUCACGUCUCGGCCCCUGUCAGAUUCUGGUGAAUCUGCGAAUUCUGCUGU	0.104
GGGGGCCAGAGCAGAAGCGUUCACGUCGCGGCCCCUGUCAGUUUCUGGUGAAUCUGCGAAUUCUGCUGU	1.01
GGGGGCCAGAGCAGAAGCGUUCACGUCGCGGCCCCUGUCAGGUUCUGGUGAAUCUGCGAAUUCUGCUGU	0.949
GGGGGCCAGAGCAGAAGCGUUCACGUCGCGGCCCCUGUCAGCUUCUGGUGAAUCUGCGAAUUCUGCUGU	1.03
GGGGGCCAGAGCAGAAGCGUUCACGUCGCGGCCGCUGUCAGAUUCUGGUGAAUCUGCGAAUUCUGCUGU	0.994
GGGGGCCAGAGCAGAAGCGUUUACGUCGCGGCCCCUGUCAGAUUCUGGUGAAUCUGCGAAUUCUGCUGU	0.445
GGGGGCCAGAGCAGAAGCGUUGACGUCGCGGCCCCUGUCAGAUUCUGGUGAAUCUGCGAAUUCUGCUGU	0.257
GGGGGCCAGAGCAGAAGCGUUCACGUCGCGGCCCCUUUCAGAUUCUGGUGAAUCUGCGAAUUCUGCUGU	0.323
GGGGGCCAGAGCAGAAGCGUUCACGUCGCGGCCCCUGUCAGAUUCUGGUGAAUCUGCGAAUUAUGCUGU	0.909
GGGGGCCAGAGCAGAAGCGUUCACGUCGCGGCCCCUGUCAGAUUCUGGUGAAUCUGCGAAUUUUGCUGU	0.973
GGGGGCCAGAGCAGAAGCGUUCACGUCGCGGCCCCUGUCAGAUUCUGGUGAAUUUGCGAAUUCUGCUGU	1.05
GGGGGCCAGAGCAGAAGCGUUCACGUCGCGGCCCCUGUCAGAUUCUGGUGAAUAUGCGAAUUCUGCUGU	0.931
GGGGGCCAGAGCAGAAGCGUUCACGUCGCGGCCCCUGUCAGAUUGUGGUGAAUCUGCGAAUUCUGCUGU	0.996
GGGGGCCAGAGCAGAAGCGUUCACGUCGCGGCCCUUGUCAGAUUCUGGUGAAUCUGCGAAUUCUGCUGU	0.964
GGGGGCCAGAGCAGAAGCGUUCACGUCGCGGCCCGUGUCAGAUUCUGGUGAAUCUGCGAAUUCUGCUGU	0.758
GGGGGCCAGAGCAGAAGCGUUCACGUUGCGGCCCCUGUCAGAUUCUGGUGAAUCUGCGAAUUCUGCUGU	0.888
GGGGGCCAGAGCAGAAGCGUUCACGUCGCGGCCCCUGUCAGAUUCUGGUGAAUCUGCGAAUUCUGCUUU	1.02
GGGGGCCAGAGCAGAAGCGUUCACGUCGCGGCCCCUGUCAGAUUCUGGUGAAUCUGCGAAUUCUGCUAU	1.05
GGGGGCCAGAGCAGAAGCGUUCACGUCGCGGCCCCUGUCAGAUUCUGGUGAAUCUGCGAAUUCUGCUCU	0.997
GGGGGCCAGAGCAGCAGCGUUCACGUCGCGGCCCCUGUCAGAUUCUGGUGAAUCUGCGAAUUCUGCUGU	0.819

Variant	self-cleavage
GGGGGCCAGAGCAGAAGCGUUCACGUCGCGGCCCCUGUCACAUUCUGGUGAAUCUGCGAAUUCUGCUGU	0.964
GGGGGCCAGAGCAGAAGCGUUCACGUCGCGGCCCCUGUCAUAUUCUGGUGAAUCUGCGAAUUCUGCUGU	0.888
GGGGGCCAGAGCAGAAGCGUUCACGUCGCGGCCCCUGUCAGAUUCUGGUGAAUCUGCUAAUUCUGCUGU	1.04
GGGGGCCAGAGCAGAAGCGUUCACGUCGCGGCCCCUGUCAGAUUCUGGUGAAUCUGCCAAUUCUGCUGU	0.984
GGGGGCCAGAGCAGAAGCGUUCACGUCGCGGCCCCUGUCAGAUUCUGGUGAGUCUGCGAAUUCUGCUGU	1.05
GGGGGCCAGAGCAGAAGCGUUCACGUCGCGGCGCCUGUCAGAUUCUGGUGAAUCUGCGAAUUCUGCUGU	0.925
GGGGGCCAGAGCAGAAGCGUUCACGUCGCGGCUCCUGUCAGAUUCUGGUGAAUCUGCGAAUUCUGCUGU	1.04
GGGGGCCAGAGCAGAAGCGAUCACGUCGCGGCCCCUGUCAGAUUCUGGUGAAUCUGCGAAUUCUGCUGU	0.0617
GGGGGCCAGAGCAGAAGCGGUCACGUCGCGGCCCCUGUCAGAUUCUGGUGAAUCUGCGAAUUCUGCUGU	0.212
GGGGGCCAGAGCAGAAGCGUUCAUGUCGCGGCCCCUGUCAGAUUCUGGUGAAUCUGCGAAUUCUGCUGU	0.9
GGGGGCCAGAGCAGAAGCGUUCAAGUCGCGGCCCCUGUCAGAUUCUGGUGAAUCUGCGAAUUCUGCUGU	0.872
GGGGGCCAGAGCAGAAGCGUUCACGUCGCGGCCCCUGUCAGAUUCUGGUGAAUCUGCGGAUUCUGCUGU	0.997
GGGGGCCAGAGCAGAAGCGUUCACGUCGCGGCCCCUGUCAGAUUCUGGUGAAUCUGCGUAUUCUGCUGU	0.936
GGGGGCCAGAGCAGAAGCGUUCACGUCGCGGCCCCUGUCAGAUUCUGGUGAAUCUGCGAAUUCUGUUGU	0.967
GGGGGCCAGAGCAGAAGCGUUCACGUCGCGGCCCCUGUCAGAUUCUGGUGAAUCUGCGAAUUCUGGUGU	0.905
GGGGGCCAGAGCAGAACCGUUCACGUCGCGGCCCCUGUCAGAUUCUGGUGAAUCUGCGAAUUCUGCUGU	0.176
GGGGGCCAGAGCAGAAGAGUUCACGUCGCGGCCCCUGUCAGAUUCUGGUGAAUCUGCGAAUUCUGCUGU	0.256
GGGGGCCAGAGCAGAAGGGUUCACGUCGCGGCCCCUGUCAGAUUCUGGUGAAUCUGCGAAUUCUGCUGU	0.2
GGGGGCCAGAGCAGAAGCGUUCACGUCGCGGCCCCUGUCAGAUUCUGAUGAAUCUGCGAAUUCUGCUGU	1.01
GGGGGCCAGAGCAGAAGCGUUCACGUCGCGGCCCCUGUCAGAUUCUGCUGAAUCUGCGAAUUCUGCUGU	0.99
GGGGGCCAGAGCAGAAGCGUUCACGUCGCGGCCCCUGUUAGAUUCUGGUGAAUCUGCGAAUUCUGCUGU	0.878
GGGGGCCAGAGCAGAAGCGUUCACGUCGCGGCCCCUGUGAGAUUCUGGUGAAUCUGCGAAUUCUGCUGU	0.981
GGGGGCCAGAGCAGAAGCGUUCACGUCGCGGCCCCUGUAAGAUUCUGGUGAAUCUGCGAAUUCUGCUGU	0.912
GGGGGCCAGAGCAGAAGCGUACACGUCGCGGCCCCUGUCAGAUUCUGGUGAAUCUGCGAAUUCUGCUGU	0.998
GGGGGCCAGAGCAGAAGCGUUCACGUCGGGGCCCCUGUCAGAUUCUGGUGAAUCUGCGAAUUCUGCUGU	0.695
GGGGGCCAGAGCAGAAGCGUUCACGUCGUGGCCCCUGUCAGAUUCUGGUGAAUCUGCGAAUUCUGCUGU	0.897

Variant	self-cleavage
GGGGGCCAGAGCAGAAGCGUUCACGUCGAGGCCCCUGUCAGAUUCUGGUGAAUCUGCGAAUUCUGCUGU	0.84
GGGGGCCAGAGGAGAAGCGUUCACGUCGCGGCCCCUGUCAGAUUCUGGUGAAUCUGCGAAUUCUGCUGU	0.878
GGGGGCCAGAGUAGAAGCGUUCACGUCGCGGCCCCUGUCAGAUUCUGGUGAAUCUGCGAAUUCUGCUGU	1
GGGGGCCAGAGAAGAAGCGUUCACGUCGCGGCCCCUGUCAGAUUCUGGUGAAUCUGCGAAUUCUGCUGU	0.789
GGGGGCCAGAGCAGAAGCGUUCACGUCGCGGCCCCUGUCAGAUUCUGGUGAAUCUGCGAAUUCUACUGU	0.968
GGGGGCCAGAGCAGAAGCGUUCACGUCGCGGCCCCUGUCAGAUUCUGGUGAAUCUGCGAAUUCUUCUGU	0.65
GGGGGCCAGAGCAGAAGCGUUCACGUCGCGGCCCCUGUCAGAUUCUGGUGAAUCUGCGAAUUCUCCUGU	0.585
GGGGGCCAGAGCAGAAGCGUUCACGUCGCGGACCCUGUCAGAUUCUGGUGAAUCUGCGAAUUCUGCUGU	0.983
GGGGGCCAGAGCAGAAGCGUUCACGUCGCGGUCCCUGUCAGAUUCUGGUGAAUCUGCGAAUUCUGCUGU	0.992
GGGGGCCAGAGCAGAAGCGUUCACGUCGCGGGCCCUGUCAGAUUCUGGUGAAUCUGCGAAUUCUGCUGU	0.665
GGGGGCCAGAGCAGAAGCGUUCACGUCGCGGCCCCUGUCAGAUUCUGGUCAAUCUGCGAAUUCUGCUGU	1.01
GGGGGCCAGAACAGAAGCGUUCACGUCGCGGCCCCUGUCAGAUUCUGGUGAAUCUGCGAAUUCUGCUGU	0.882
GGGGGCCAGAGCAGAAGCGUUCACGUCGCGGCCCCUGUCAGAUUCUGGUGAAUCUGAGAAUUCUGCUGU	0.402
GGGGGCCAGAGCAGAAGCGUUCACGUCGCGGCCCCUGUCAGAUUCUGGUGAAUCUGGGAAUUCUGCUGU	0.334
GGGGGCCAGAGCAGAAGCGUUCUCGUCGCGGCCCCUGUCAGAUUCUGGUGAAUCUGCGAAUUCUGCUGU	0.978
GGGGGCCAGAGCAGAAGCGUUCGCGUCGCGGCCCCUGUCAGAUUCUGGUGAAUCUGCGAAUUCUGCUGU	0.976
GGGGGCCAGAGCAGAAGCGUUCACGUCGCGGCCCCUGUCAGAUUCUGGUGGAUCUGCGAAUUCUGCUGU	0.993
GGGGGCCAGAGCAGAAGCGUUCACGUCGCGGCCCCUGUCAGAUUCUGGUGUAUCUGCGAAUUCUGCUGU	0.976
GGGGGCCAGAGCAGAAGCGUUCACGUCGCGGCCCCUGUCAGAUUCUGGUGAAUCUGCGAUUUCUGCUGU	0.486
GGGGGCCAGAGCAGAAGCGUUCACGUCGCGGCCCCUGUCAGAUUCUGGUGAAUCUGCGACUUCUGCUGU	0.385
GGGGGCCAGAGCAGAAGCAUUCACGUCGCGGCCCCUGUCAGAUUCUGGUGAAUCUGCGAAUUCUGCUGU	0.106
GGGGGCCAGAGCAGAGGCGUUCACGUCGCGGCCCCUGUCAGAUUCUGGUGAAUCUGCGAAUUCUGCUGU	0.957
GGGGGCCAGAGCAGAUGCGUUCACGUCGCGGCCCCUGUCAGAUUCUGGUGAAUCUGCGAAUUCUGCUGU	0.887
GGGGGCCAGAGCAGAAGCGUUCACGUCGCGCCCCCUGUCAGAUUCUGGUGAAUCUGCGAAUUCUGCUGU	0.363
GGGGGCCAGAGCAGAAGCGUUCACGUCGCGUCCCCUGUCAGAUUCUGGUGAAUCUGCGAAUUCUGCUGU	0.97
GGGGGCCAGAGCAGAAGCGUUCACGUCGCGGCCCCUGUCGGAUUCUGGUGAAUCUGCGAAUUCUGCUGU	0.968

From the RNAGym collection of RNA variant scans (doi:10.7554/elife.80360)
